Earlier results as cited in article PMC4828448.

Target: nisin (Lactococcus lactis) (UniProt P13068)
Chain of UniProt P13068 (P13068 24-57): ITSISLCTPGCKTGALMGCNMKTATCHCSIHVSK

Kd: 1000 nM
Substance: NisI (from UniProt P42708)
